Experimental data reported in paper PMC10936776, “Structural and functional characterization of AfsR, an SARP family transcriptional activator of antibiotic biosynthesis in Streptomyces” (PLOS Biology, 2024).

Key:
[1] = target: AfsR SARP domain;RNAP-sigmaHrdB holoenzyme;RbpA;CarD (Streptomyces coelicolor …, UniProt P25941;P60312;Q9L0L0;Q8CJT1;P18183;Q9KXS1;Q9RKY0;Q9L0Q9 …, |||); test: cryo-EM; 3.35 A; open complex, 13-nt bubble; FP: 20 mM HEPES pH 7.5, 100 mM NaCl, 5 mM MgCl2, 2 mM DTT, 5% glycerol, 0.1 ug/ml poly(dI-dC), 10 nM DNA, 30 C, 20 min; details: protein: recombinant;;recombinant;recombinant; tags: pET28a His tag (Ni-NTA);;pET28a His tag (Ni-NTA);pET28a His tag (Ni-NTA); chain copies: 2;2;1;1;1;1;1;1; 44 bp duplex, 6-nt mismatched bubble (-6 to -1), 15 bp duplex
[2] = target: SARP domain of Streptomyces coelicolor AfsR (residues 1 to 270) (S. coelicolor) (UniProt P25941); test: cryo-EM structure; SARP-TIC: 32 uM SARP preincubated with 5 uM afsS promoter DNA scaffold, mixed with 4 uM RNAP core, 16 uM σ^HrdB, 16 uM CarD, 32 uM RbpA; 25°C; 20 mM Tris-HCl pH 8.0, 50 mM KCl, 5 mM MgCl2, 3 mM DTT; Superose 6; nominal resolution 3.35 Å, SARP region 3.77 Å
[3] = target: T1, Streptomyces coelicolor RNA polymerase sigma factor σ^HrdB (S. coelicolor, UniProt P18183 1-511); test: as above; details: both partners purified
T1 construct: principal sigma factor HrdB, S. coelicolor; region 1.1 disordered in the map; Stood in the assay as part of the RNAP σ^HrdB-holoenzyme; also called σ subunit; σ R4 (region 4); source: purified as described previously [37]
T1 sequence: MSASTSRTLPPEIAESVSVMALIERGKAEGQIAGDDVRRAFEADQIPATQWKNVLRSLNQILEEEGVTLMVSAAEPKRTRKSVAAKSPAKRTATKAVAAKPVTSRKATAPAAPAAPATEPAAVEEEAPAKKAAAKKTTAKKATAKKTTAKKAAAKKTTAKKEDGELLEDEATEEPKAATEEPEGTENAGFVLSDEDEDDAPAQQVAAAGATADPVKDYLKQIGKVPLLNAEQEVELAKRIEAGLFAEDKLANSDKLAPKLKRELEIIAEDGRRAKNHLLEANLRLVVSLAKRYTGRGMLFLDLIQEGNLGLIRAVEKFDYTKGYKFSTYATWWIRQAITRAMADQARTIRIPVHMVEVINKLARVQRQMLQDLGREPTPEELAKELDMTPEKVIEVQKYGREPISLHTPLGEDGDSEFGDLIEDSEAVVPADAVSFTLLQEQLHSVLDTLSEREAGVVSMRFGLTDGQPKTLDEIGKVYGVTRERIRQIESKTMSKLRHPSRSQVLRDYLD

[4] = target: T2, Streptomyces coelicolor RNA polymerase β subunit (S. coelicolor, UniProt Q9L0L0 1-1161); test: as above; details: both partners purified
T2 construct: RNA polymerase subunit beta, S. coelicolor; Stood in the assay as a subunit of the RNAP core in the holoenzyme; also called RNAP β; β flap; source: S. coelicolor RNAP purified as described previously [37]

[5] = target: T3, Streptomyces coelicolor RNA polymerase β′ subunit (S. coelicolor, UniProt Q8CJT1 1-1299); test: as above; details: both partners purified
T3 construct: RNA polymerase subunit beta', S. coelicolor; Stood in the assay as a subunit of the RNAP core in the holoenzyme; also called RNAP β′; β′ ZBD; source: S. coelicolor RNAP purified as described previously [37]

[6] = target: T4, Streptomyces coelicolor RNA polymerase α subunit (S. coelicolor, UniProt P60312 1-340); test: as above; details: both partners purified
T4 construct: RNA polymerase subunit alpha, S. coelicolor; Stood in the assay as a subunit of the RNAP core in the holoenzyme; density for one αCTD is seen; also called αCTD (C-terminal domain of the α subunit); source: S. coelicolor RNAP purified as described previously [37]
T4 sequence: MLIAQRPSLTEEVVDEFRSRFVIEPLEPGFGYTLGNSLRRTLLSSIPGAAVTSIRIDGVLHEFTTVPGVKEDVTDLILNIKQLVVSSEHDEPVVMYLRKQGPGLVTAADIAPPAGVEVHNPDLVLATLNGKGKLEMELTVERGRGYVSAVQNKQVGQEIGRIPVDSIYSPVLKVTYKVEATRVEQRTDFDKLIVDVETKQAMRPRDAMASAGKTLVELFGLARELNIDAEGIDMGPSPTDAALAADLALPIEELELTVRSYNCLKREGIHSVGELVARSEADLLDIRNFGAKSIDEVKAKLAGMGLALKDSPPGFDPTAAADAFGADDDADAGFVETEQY

[7] = target: T5, AfsR SARP domain (Streptomyces coelicolor M145, UniProt P25941 1-270); test: fluorescence polarization; 5 mM Mg2+; poly(dI-dC); FP: 20 mM HEPES pH 7.5, 100 mM NaCl, 5 mM MgCl2, 2 mM DTT, 5% glycerol, 0.1 ug/ml poly(dI-dC), 10 nM DNA, 30 C, 20 min; details: protein: recombinant; tags: pET28a His tag (Ni-NTA); chain copies: 2; label: 5'-FAM; blunt
T5 sequence: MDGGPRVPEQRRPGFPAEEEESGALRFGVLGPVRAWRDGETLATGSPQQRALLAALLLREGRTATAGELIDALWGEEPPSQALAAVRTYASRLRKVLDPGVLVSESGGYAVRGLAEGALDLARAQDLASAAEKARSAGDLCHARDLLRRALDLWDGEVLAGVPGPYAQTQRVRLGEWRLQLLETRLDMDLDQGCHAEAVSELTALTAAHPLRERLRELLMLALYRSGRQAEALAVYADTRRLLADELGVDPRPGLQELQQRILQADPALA

[8] = target: T6, AfsR 4E (Streptomyces coelicolor M145, UniProt P25941 1-993, S391E;T337E;T506E;S953E); test: fluorescence polarization; stronger than dephosphorylated AfsR; FP: 20 mM HEPES pH 7.5, 100 mM NaCl, 5 mM MgCl2, 2 mM DTT, 5% glycerol, 0.1 ug/ml poly(dI-dC), 10 nM DNA, 30 C, 20 min; details: protein: recombinant; tags: pET28a His tag (Ni-NTA); chain copies: 2; label: 5'-FAM; blunt
T6 sequence: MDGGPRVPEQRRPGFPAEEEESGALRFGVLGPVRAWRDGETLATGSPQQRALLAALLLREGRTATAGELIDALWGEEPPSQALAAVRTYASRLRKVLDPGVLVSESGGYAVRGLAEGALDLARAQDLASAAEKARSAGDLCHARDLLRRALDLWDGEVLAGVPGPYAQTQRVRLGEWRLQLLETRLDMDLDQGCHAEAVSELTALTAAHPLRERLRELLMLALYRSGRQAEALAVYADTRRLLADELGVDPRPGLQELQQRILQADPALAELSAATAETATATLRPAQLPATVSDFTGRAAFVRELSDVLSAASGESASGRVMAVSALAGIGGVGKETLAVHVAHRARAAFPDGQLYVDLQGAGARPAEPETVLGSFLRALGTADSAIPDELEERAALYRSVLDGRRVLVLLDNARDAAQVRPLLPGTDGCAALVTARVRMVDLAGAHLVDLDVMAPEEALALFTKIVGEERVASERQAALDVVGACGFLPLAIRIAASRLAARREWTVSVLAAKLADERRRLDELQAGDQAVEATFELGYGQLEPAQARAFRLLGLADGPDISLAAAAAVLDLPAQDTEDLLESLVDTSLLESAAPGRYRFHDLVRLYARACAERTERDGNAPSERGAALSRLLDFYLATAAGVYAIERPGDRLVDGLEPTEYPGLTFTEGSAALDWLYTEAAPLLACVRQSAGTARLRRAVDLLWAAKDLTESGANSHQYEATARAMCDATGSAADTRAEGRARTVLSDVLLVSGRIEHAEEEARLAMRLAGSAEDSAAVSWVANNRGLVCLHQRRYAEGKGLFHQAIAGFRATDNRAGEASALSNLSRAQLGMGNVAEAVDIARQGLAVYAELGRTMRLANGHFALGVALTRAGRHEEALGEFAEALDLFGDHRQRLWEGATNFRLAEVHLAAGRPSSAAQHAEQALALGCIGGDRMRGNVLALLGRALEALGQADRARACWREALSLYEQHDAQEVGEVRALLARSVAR

[9] = target: T7, AfsR, dephosphorylated (Streptomyces coelicolor M145, UniProt P25941 1-993); test: fluorescence polarization; preincubated with ATP; DNA binding unchanged; FP: 20 mM HEPES pH 7.5, 100 mM NaCl, 5 mM MgCl2, 2 mM DTT, 5% glycerol, 0.1 ug/ml poly(dI-dC), 10 nM DNA, 30 C, 20 min; details: protein: recombinant; tags: pET28a His tag (Ni-NTA); chain copies: 2; label: 5'-FAM; blunt
T7 sequence: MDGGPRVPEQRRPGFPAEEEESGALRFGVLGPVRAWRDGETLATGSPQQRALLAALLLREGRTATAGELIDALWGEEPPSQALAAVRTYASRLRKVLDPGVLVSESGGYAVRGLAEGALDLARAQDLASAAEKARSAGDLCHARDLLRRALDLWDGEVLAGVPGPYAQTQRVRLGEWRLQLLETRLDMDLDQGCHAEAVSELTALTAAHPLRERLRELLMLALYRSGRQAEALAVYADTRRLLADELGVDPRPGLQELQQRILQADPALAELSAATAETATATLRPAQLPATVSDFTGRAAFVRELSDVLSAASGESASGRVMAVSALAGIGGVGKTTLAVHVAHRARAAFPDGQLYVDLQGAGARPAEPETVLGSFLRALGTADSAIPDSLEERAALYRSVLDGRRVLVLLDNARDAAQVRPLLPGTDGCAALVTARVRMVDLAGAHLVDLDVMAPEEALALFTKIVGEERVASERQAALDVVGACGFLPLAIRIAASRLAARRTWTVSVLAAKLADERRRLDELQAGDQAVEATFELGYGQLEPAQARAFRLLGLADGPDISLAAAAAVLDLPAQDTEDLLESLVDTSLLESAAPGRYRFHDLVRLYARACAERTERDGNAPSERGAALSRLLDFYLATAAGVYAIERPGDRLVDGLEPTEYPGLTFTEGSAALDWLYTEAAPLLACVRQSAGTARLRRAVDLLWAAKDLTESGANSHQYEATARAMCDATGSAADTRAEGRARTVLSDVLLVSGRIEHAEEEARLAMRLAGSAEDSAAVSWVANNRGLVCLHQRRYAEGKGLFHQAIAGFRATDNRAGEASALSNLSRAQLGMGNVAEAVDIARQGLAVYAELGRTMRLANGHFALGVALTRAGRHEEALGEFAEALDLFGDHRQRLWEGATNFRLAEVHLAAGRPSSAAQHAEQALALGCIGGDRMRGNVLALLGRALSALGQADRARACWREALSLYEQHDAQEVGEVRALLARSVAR

B1: afsS promoter scaffold -50 to +15, 6-nt bubble (dsDNA)
DNA 1: GTAGCCGGAGCGTTCAGCGTTCGTTTATCTCCCCCTGGCACTGTCATCTCCGTCAGACCGTCGCA
DNA 2: TGCGACGGTCTGACGCTCTACACAGTGCCAGGGGGAGATAAACGAACGCTGAACGCTCCGGCTAC
[1]
  binding result: binds

B2: SARP domain of Streptomyces coelicolor AfsR (residues 1 to 270) (domain or fragment, S. coelicolor, UniProt P25941 1-270, looked up)
chain: MDGGPRVPEQRRPGFPAEEEESGALRFGVLGPVRAWRDGETLATGSPQQRALLAALLLREGRTATAGELIDALWGEEPPSQALAAVRTYASRLRKVLDPGVLVSESGGYAVRGLAEGALDLARAQDLASAAEKARSAGDLCHARDLLRRALDLWDGEVLAGVPGPYAQTQRVRLGEWRLQLLETRLDMDLDQGCHAEAVSELTALTAAHPLRERLRELLMLALYRSGRQAEALAVYADTRRLLADELGVDPRPGLQELQQRILQADPALA
notes: AfsR, S. coelicolor M145, SARP domain, residues 1 to 270 (Met1-Ala270); Two protomers (upstream and downstream) stand on the afs box DNA in SARP-TIC; also called isolated SARP domain; wild-type SARP; source: E. coli BL21(DE3), purified (nickel-NTA, SEC Superdex 200)
[2]
  stoichiometry N: 2
[3]
  binding result: binds
[4]
  binding result: binds
[5]
  binding result: binds
[6]
  binding result: binds

B3: afs box (-45 to -14) (dsDNA)
DNA 1: CGGAGCGTTCAGCGTTCGTTTATCTCCCCCTG
DNA 2: CAGGGGGAGATAAACGAACGCTGAACGCTCCG
[7]
  binding result: binds
[8]
  binding result: binds
[9]
  binding result: binds
